According to article PMC8439657:

Experiments:
[1] = target: Twin-Strep-tagged activated mTORC1 mutant A1459P (human) (UniProt P42345); assay: SPR; Biacore T200, CM5 chip; Twin-Strep-tagged mTORC1 captured on Strep-Tactin XT; DEPTOR PDZ (305-409) injected 120 s, 300 s dissociation, 1:2 dilution series from 20 µM; 50 mM HEPES pH 7.5, 100 mM NaCl, 1 mM TCEP; equilibrium responses fit to one-site specific binding with a linear non-specific component
[2] = target: Twin-Strep-tagged wild-type mTORC1 (human) (UniProt P42345); assay: as above
[3] = target: mTORC1 (wild-type human mTOR, RAPTOR, mLST8), Strep tag removed (human) (UniProt P42345)
[4] = target: mTORC1 (wild-type human mTOR, RAPTOR, mLST8), Strep tag removed (human) (UniProt P42345); remark: listed apart in the source
[5] = target: mTORC1 (wild-type human mTOR, RAPTOR, mLST8), Strep tag removed (human) (UniProt P42345); remark: listed apart in the source
[6] = target: mTOR^ΔN-mLST8 complex (human) (UniProt P42345)

| Substance | Kd [1] [µM] | Kd [2] [µM] | IC50 of inhibition of mTORC1 phosphorylation of the TOS-less 4EBP1 mutant, against wild-type 4EBP1 [3] [fold] | fold decrease of the IC50 of DEPTOR inhibition of 4EBP1 phosphorylation in the presence of RHEB-GTP, against mTORC1 alone [4] [fold] | IC50 of inhibition of mTORC1 kinase activity, phosphorylation of GST-S6K1 367-404 peptide (western blot, p-S6K1 Thr389) [5] [µM] | IC50 of inhibition of mTORC1 kinase activity, phosphorylation of wild-type 4EBP1 (western blot, p-4EBP1 Thr37/46) [5] [µM] | IC50 of inhibition of the kinase activity of monomeric mTOR^ΔN-mLST8 [6] [µM] |
| --- | --- | --- | --- | --- | --- | --- | --- |
| DEPTOR short-linker PDZ, residues 305-409 (from UniProt Q8TB45 305-409) (domain or fragment) | 0.6 | 7 | – | – | – | – | – |
| DEPTOR (DEP-domain containing mTOR-interacting protein), full length, residues 1-409 (from UniProt Q8TB45 1-409) (natural protein) | – | – | 2 | 400 | 51 | 14 | 0.4 |
